In US11319551B2, “Methods and compositions for PPO herbicide tolerance in plants” (Monsanto Technology LLC, priority 2015, dated 2022):
Read-outs that look alike come from different tables or passages of the source.

Experiments:
[1] = system: hemG knockout E. coli strain; type: cell-based
[2] = PPO enzyme assay, apparent Km for substrate; type: biochemical; conditions: substrate protoporphyrinogen
[3] = system: transgenic soybean plants; assay: S-3100 tolerance of transformed soybean plantlets at five weeks; type: in vivo; design: key to Tolerance score to S-3100 at 5 weeks: 0 for poor tolerance, high damage, low green coloration; 1 for some tolerance, average damage, moderate green coloration; 2 for good tolerance, low damage, high green coloration; conditions: for tolerance to the PPO herbicide in high-throughput screening at five weeks: S-3100, over the constructs with different transit peptides; for Tolerance score to S-3100 at 5 weeks: day four post application
Description: (§1) The microbial HemY PPO enzymes were expressed in transgenic soybean plants, and the transgenic plants were analyzed for PPO herbicide tolerance. […] For plant transformation, the nucleotide sequences encoding the HemY PPO enzymes were codon optimized for dicot expression. This permitted the side-by-side comparison of the seven different HemY PPO enzymes with thirty-nine different targeting peptides using the same promoter and 3′UTR elements for gene expression
(§2) The plant transformation constructs were used to transform soybean excised embryos (germplasm A3555) using A. tumefaciens and standard methods known in the art. Four hundred explants were inoculated for each construct resulting in twelve containers per construct. A sterile PPO herbicide solution was used for herbicide tolerance testing. The herbicide solution consisted of 0.3 g of S-3100 in crop oil concentrate (5.0 mL) and 495 mL of deionized water. This was filtered through a 0.45 micron Nalgene® Rapid-Flow™ Tissue Culture Filter Unit and Surfactant-Free Cellulose Acetate membrane filter unit (VWR, Radnor, Pa., USA). The resulting sterile solution was shaken before application.
At five weeks post-transformation, four of the twelve plant containers per construct were sprayed with two passes of the sterile PPO herbicide solution. The treated plantlets were then enclosed in the container and received at least 15 hours of light exposure post spray each day for four days. At the end of day four post application of S-3100, the treated plantlets were photographed and scored on a visual scale of green coloration (green coloration was representative of healthy photosynthetic plant tissue as compared to photo-bleached tissue) versus damage. The scoring values were 0 for poor tolerance, high damage, low green coloration; 1 for some tolerance, average damage, moderate green coloration; and 2 for good tolerance, low damage, high green coloration. The results of herbicide application of S-3100 at five weeks is presented in Table 5, where n.d. indicates the analysis was not conducted.

[4] = system: transgenic soybean plants; assay: S-3100 herbicide injury of R0 transgenic soybean plants at eleven weeks; type: in vivo; conditions: for tolerance to the PPO herbicide, R0 plants at eleven weeks: S-3100, injury rating compared with non-transgenic control (30% or above); for Tolerance score to S-3100 at 11 weeks (herbicide injury rating): R0 plants, seven days after treatment
Description: as §1, §2
Plants in the non-sprayed containers corresponding to constructs having a high passing score of 2 and a few fails as negative controls were transplanted at approximately 7 weeks post transformation. The R0 plants were grown in a greenhouse under long-day nursery conditions (18 hr light at 80° F. then 6 hr dark at 74° F.) for approximately four weeks. At eleven weeks, the R0 plants were sprayed with two passes of the same herbicide solution (0.3 g of S-3100) described above. Herbicide injury ratings were collected seven days after treatment. Any injury rating of 30% or above was equivalent to non-transgenic soybean injury ratings. The results of the herbicide tolerance application at eleven weeks to the R0 plants are presented in Table 6, where n.d. indicates the analysis was not conducted.

[5] = acifluorfen, flumioxazin, lactofen, or fomesafen, saturating amount

B1: A. tuberculatus PPO: wild-type protoporphyrinogen oxidase from Amaranthus tuberculatus (WH), SEQ ID NO:80, negative control expressed in E. coli (protein, listed as Amaranthus tuberculatus)
chain: MGNISEREEPTSAKRVAVVGAGVSGLAAAYKLKSHGLSVTLFEADSRAGGKLKTVKKDGFIWDEGANTMTESEAEVSSLIDDLGLREKQQLPISQNKRYIARDGLPVLLPSNPAALLTSNILSAKSKLQIMLEPFLWRKHNATELSDEHVQESVGEFFERHFGKEFVDYVIDPFVAGTCGGDPQSLSMHHTFPEVWNIEKRFGSVFAGLIQSTLLSKKEKGGENASIKKPRVRGSFSFQGGMQTLVDTMCKQLGEDELKLQCEVLSLSYNQKGIPSLGNWSVSSMSNNTSEDQSYDAVVVTAPIRNVKEMKIMKFGNPFSLDFIPEVTYVPLSVMITAFKKDKVKRPLEGFGVLIPSKEQHNGLKTLGTLFSSMMFPDRAPSDMCLFTTFVGGSRNRKLANASTDELKQIVSSDLQQLLGTEDEPSFVNHLFWSNAFPLYGHNYDSVLRAIDKMEKDLPGFFYAGNHKGGLSVGKAMASGCKAAELVISYLDSHIYVKMDEKTA
sensitivity to PPO herbicides (negative control) ([1]; all of the PPO herbicides): sensitive to all of the PPO herbicides

B2: E. coli HemG: E. coli PPO enzyme HemG (protoporphyrinogen IX dehydrogenase; GenBank Accession No. WP_021498199), SEQ ID NO:76 (protein, listed as Escherichia coli)
chain: MKTLILFSTRDGQTREIASYLASELKELGIQADVANVHRIEEPQWENYDRVVIGASIRYGHYHSAFQEFVKKHATRLNSMPSAFYSVNLVARKPEKRTPQTNSYARKFLMNSQWRPDRCAVIAGALRYPRYRWYDRFMIKLIMKMSGGETDTRKEVVYTDWEQVANFAREIAHLTDKPTLK
Km [2]: 1600 nM | growth rate of hemG knockout E. coli strain in presence of PPO herbicide [1, 5]: normal growth rates

B3: R1 N311: microbial HemY protoporphyrinogen oxidase, SEQ ID NO:16 (protein, listed as Bacillus atrophaeus)
chain: MSDGKKHLVIIGGGITGLASAFYMEKEIREKNLPLSVTLVEASPRVGGKIQTARKDGYIIERGPDSFLERKKSAPELVEDLGLEHLLVNNATGQSYVLVNETLHPMPKGAVMGIPTKIAPFMSTGLFSFSGKARAAMDFVLPASKPKEDQSLGEFFRRRVGDEVVENLIEPLLSGIYAGDIDRLSLMSTFPQFYQTEQKHRSLILGMKKTRPQGSGQRLTAKKQGQFQTLKTGLQTLVEELENQLKLTKVYKGTKVTNISRGEKGCSIALDNGMTLDADAAIVTSPHKSAAGMFPDLPAVSQLKDMHSTSVANVALGFPQEAVQMEHEGTGFVISRNSDFSITACTWTNKKWPHSAPEGKTLLRAYVGKAGDESIVELSDNEIIKIVLEDLKKVMKIKGEPEMTCVTRWNESMPQYHVGHKQRIKKVREALAASYPGVYMTGASFEGVGIPDCIDQGKSAVSDVLAYLFG
growth rate of hemG knockout E. coli strain in presence of PPO herbicide [1, 5]: did not grow

B4: R1N333: microbial HemY PPO, SEQ ID NO:17 in bacterial assay; truncated SEQ ID NO:21 in soybean (protein, listed as Bacillus atrophaeus)
chain: MSDGKKHLVIIGGGITGLASAFYMEKEIREKNLPLSVTLVEASPRVGGKIQTARKDGYIIERGPDSFLERKKSAPELVEDLGLEHLLVNNATGQSYVLVNETLHPMPKGAVMGIPTKIAPFMSTRLFSFSGKARAAMDFVLPASKPKEDQSLGEFFRRRVGDEVVENLIEPLLSGIYAGDIDRLSLMSTFPQFYQTEQKHRSLILGMKKTRPQGSGQQLTAKKQGQFQTLKTGLQTLVEELENQLKLTKVYKGTKVTNISRGEKGCSIALDNGMTLDADAAIVTSPHKSAAGMFPDLPAVSQLKDMHSTSVANVALGFPQEAVQMEHEGTGFVISRNSDFSITACTWTNKKWPHSAPEGKTLLRAYVGKAGDESIVELSDNEIIKIVLEDLKKVMKIKGEPEMTCVTRWNESMPQYHVGHKQRIKKVREALAASYPGVYMTGASFEGVGIPDCIDQGKSAVSDVLAYLFE
tolerance to the PPO herbicide in high-throughput screening at five weeks [3]: did not provide tolerance | Tolerance score to S-3100 at 5 weeks ([3]; targeting peptide TP2): 0 | Tolerance score to S-3100 at 5 weeks ([3]; targeting peptide TP3): 0 | Tolerance score to S-3100 at 5 weeks ([3]; targeting peptide TP4): 0 | Tolerance score to S-3100 at 5 weeks ([3]; targeting peptide TP6): 0 | Tolerance score to S-3100 at 5 weeks ([3]; targeting peptide TP7): 0 | Tolerance score to S-3100 at 5 weeks ([3]; targeting peptide TP8): 0 | Tolerance score to S-3100 at 5 weeks ([3]; targeting peptide TP9): 1 | Tolerance score to S-3100 at 5 weeks ([3]; targeting peptide TP11): 0 | Tolerance score to S-3100 at 5 weeks ([3]; targeting peptide TP12): 1 | Tolerance score to S-3100 at 5 weeks ([3]; targeting peptide TP13): 0 | Tolerance score to S-3100 at 5 weeks ([3]; targeting peptide TP14): 0 | Tolerance score to S-3100 at 5 weeks ([3]; targeting peptide TP15): 0 | Tolerance score to S-3100 at 5 weeks ([3]; targeting peptide TP16): 0 | Tolerance score to S-3100 at 5 weeks ([3]; targeting peptide TP17): 0 | Tolerance score to S-3100 at 5 weeks ([3]; targeting peptide TP18): 0 | Tolerance score to S-3100 at 5 weeks ([3]; targeting peptide TP19): 0 | Tolerance score to S-3100 at 5 weeks ([3]; targeting peptide TP21): 0 | Tolerance score to S-3100 at 5 weeks ([3]; targeting peptide TP22): 0 | Tolerance score to S-3100 at 5 weeks ([3]; targeting peptide TP23): 1 | Tolerance score to S-3100 at 5 weeks ([3]; targeting peptide TP24): 0 | Tolerance score to S-3100 at 5 weeks ([3]; targeting peptide TP25): 0 | Tolerance score to S-3100 at 5 weeks ([3]; targeting peptide TP26): 0 | Tolerance score to S-3100 at 5 weeks ([3]; targeting peptide TP27): 1 | Tolerance score to S-3100 at 5 weeks ([3]; targeting peptide TP28): 0 | Tolerance score to S-3100 at 5 weeks ([3]; targeting peptide TP29): 1 | Tolerance score to S-3100 at 5 weeks ([3]; targeting peptide TP30): 0 | Tolerance score to S-3100 at 5 weeks ([3]; targeting peptide TP31): 1 | Tolerance score to S-3100 at 5 weeks ([3]; targeting peptide TP32): 0 | Tolerance score to S-3100 at 5 weeks ([3]; targeting peptide TP33): 0 | Tolerance score to S-3100 at 5 weeks ([3]; targeting peptide TP34): 1 | Tolerance score to S-3100 at 5 weeks ([3]; targeting peptide TP36): 1 | tolerance to the PPO herbicide, R0 plants at eleven weeks [4]: did not provide tolerance | Tolerance score to S-3100 at 11 weeks (herbicide injury rating) ([4]; targeting peptide TP8): 35% | Tolerance score to S-3100 at 11 weeks (herbicide injury rating) ([4]; targeting peptide TP9): 35% | Tolerance score to S-3100 at 11 weeks (herbicide injury rating) ([4]; targeting peptide TP14): 35% | growth rate of hemG knockout E. coli strain in presence of PPO herbicide [1, 5]: did not grow

B5: R2N70: microbial HemY protoporphyrinogen oxidase, SEQ ID NO:3 (protein, listed as Bacillus subtilis)
chain: MSDGKKHVVIIGGGITGLAAAFYMEKEIKEKNLPLELTLVEASPRVGGKIQTVKKDGYIIERGPDSFLERKKSAPQLVKDLGLEHLLVNNATGQSYVLVNRTLHPMPKGAVMGIPTKIAPFVSTGLFSLSGKARAAMDFILPASKTKDDQSLGEFFRRRVGDEVVENLIEPLLSGIYAGDIDKLSLMSTFPQFYQTEQKHRSLILGMKKTRPQGSGQQLTAKKQGQFQTLSTGLQTLVEEIEKQLKLTKVYKGTKVTKLSHSGSGYSLELDNGVTLDADSVIVTAPHKAAAGMLSELPAISHLKNMHSTSVANVALGFPEGSVQMEHEGTGFVISRNSDFAITACTWTNKKWPHAAPEGKTLLRAYVGKAGDESIVDLSDNDIINIVLEDLKKVMNINGEPEMTCVTRWHESMPQYHVGHKQRIKELREALASAYPGVYMTGASFEGVGIPDCIDQGKAAVSDALTYLFS
tolerance to the PPO herbicide in high-throughput screening at five weeks [3]: provided tolerance | Tolerance score to S-3100 at 5 weeks ([3]; targeting peptide TP2): 2 | Tolerance score to S-3100 at 5 weeks ([3]; targeting peptide TP3): 1 | Tolerance score to S-3100 at 5 weeks ([3]; targeting peptide TP4): 0 | Tolerance score to S-3100 at 5 weeks ([3]; targeting peptide TP6): 0 | Tolerance score to S-3100 at 5 weeks ([3]; targeting peptide TP8): 0 | Tolerance score to S-3100 at 5 weeks ([3]; targeting peptide TP16): 0 | Tolerance score to S-3100 at 5 weeks ([3]; targeting peptide TP21): 0 | Tolerance score to S-3100 at 5 weeks ([3]; targeting peptide TP31): 1 | Tolerance score to S-3100 at 5 weeks ([3]; targeting peptide TP33): 0 | tolerance to the PPO herbicide, R0 plants at eleven weeks [4]: did not provide tolerance | Tolerance score to S-3100 at 11 weeks (herbicide injury rating) ([4]; targeting peptide TP2): 30% | growth rate of hemG knockout E. coli strain in presence of PPO herbicide ([1]; acifluorfen and S-3100): slower | tolerance to acifluorfen and S-3100 compared with strain containing R2N30 or R2N40 ([1]; acifluorfen and S-3100): much better
